Assay results published in patent publication US8008021B2, “N-terminal truncation of cardiac troponin subunits and their roles in cardiovascular disease” (Evanston Northwestern Healthcare, priority 2006, dated 2011).

T1: myofibril associated μ-calpain (Mus musculus, UniProt O35350)
T1 construct: To test whether endogenous calpain in the cardiac muscle contributes to TnT NH2-terminal modification; from tissue
T1 sequence (O35350 1-713): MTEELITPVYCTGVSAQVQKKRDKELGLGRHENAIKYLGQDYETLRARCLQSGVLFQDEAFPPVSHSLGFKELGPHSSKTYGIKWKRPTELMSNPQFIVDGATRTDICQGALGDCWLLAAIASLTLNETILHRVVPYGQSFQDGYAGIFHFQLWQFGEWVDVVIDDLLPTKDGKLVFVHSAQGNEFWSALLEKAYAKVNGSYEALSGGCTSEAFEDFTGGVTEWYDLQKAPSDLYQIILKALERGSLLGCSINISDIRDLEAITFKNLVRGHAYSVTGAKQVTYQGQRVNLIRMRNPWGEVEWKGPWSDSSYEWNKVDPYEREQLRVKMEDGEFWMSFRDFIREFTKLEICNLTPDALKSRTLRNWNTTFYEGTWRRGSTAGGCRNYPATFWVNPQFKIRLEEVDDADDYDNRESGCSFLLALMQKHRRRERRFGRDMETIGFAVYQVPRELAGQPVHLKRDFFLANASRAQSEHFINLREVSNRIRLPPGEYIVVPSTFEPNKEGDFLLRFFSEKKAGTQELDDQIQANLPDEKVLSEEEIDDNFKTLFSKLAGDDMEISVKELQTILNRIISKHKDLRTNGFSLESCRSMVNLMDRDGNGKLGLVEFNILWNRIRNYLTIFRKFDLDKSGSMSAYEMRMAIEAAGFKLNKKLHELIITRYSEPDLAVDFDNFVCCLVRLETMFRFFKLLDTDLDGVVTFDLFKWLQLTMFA
T1 sequence (O88456 1-268 partner): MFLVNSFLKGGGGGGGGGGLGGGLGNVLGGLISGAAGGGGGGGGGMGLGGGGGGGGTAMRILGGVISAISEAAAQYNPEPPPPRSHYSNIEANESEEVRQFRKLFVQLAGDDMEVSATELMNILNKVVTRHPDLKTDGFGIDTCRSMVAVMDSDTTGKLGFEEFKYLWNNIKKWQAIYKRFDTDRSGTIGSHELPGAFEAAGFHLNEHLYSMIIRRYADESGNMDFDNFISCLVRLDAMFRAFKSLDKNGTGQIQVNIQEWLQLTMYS


What was measured:
[1] = target: T1, myofibril associated μ-calpain; assay: Calpain inhibition of cTnT-ND production in TRITON X-100 extracted ventricular muscle strips (Western blot densitometry); format: biochemical; settings: 100 μM hydrogen peroxide
Method: (§1) SDS-PAGE and Western blotting. Ventricular muscle tissues or myocytes were homogenized in Laemmli SDS-PAGE sample buffer containing 2% SDS, heated at 80° C. for 5 min, and clarified by centrifugation. Total protein extracts were resolved by 14% Laemmli gel with an acrylamide:bisacrylamide ratio of 180:1 (low cross linker) or by 15% Laemmli gel with an acrylamide:bisacrylamide ratio of 29:1 (high cross linker). The gels were stained with Coomassie Brilliant Blue R250 to reveal the resolved protein bands. Duplicate gels were electrically blotted to nitrocellulose membranes, as described previously (21). After blocking in Tris-buffered saline (TBS) containing 1% bovine serum albumin (BSA), the membrane was incubated with anti-TnT mAbs CT3, 2C8, or polyclonal antibody RATnT. The membranes were then washed with high stringency using TBS containing 0.5% TRITON® X-100 and 0.05% SDS, incubated with alkaline phosphatase-conjugated anti-mouse IgG or anti-rabbit IgG second antibodies (Sigma), washed again, and developed in 5-bromo-4-chloro-3-indolylphosphate/nitro blue tetrazolium substrate solution, as described previously (21).
TRITON® X-100 extraction of ventricular muscle strips. In an ice container, ventricular muscle was cut with a sharp razor blade into fine pieces approximately the size of isolated trabeculae. The muscle strips were washed in relaxing solution containing […], 2 mM MgCl2, 2 mM EGTA, 10 mM Tris, 0.5 mM DTT, 0.1 mM PMSF and 2 mM Na4P2O7. After centrifugation at 2,800×g at 4° C. for 15 min, the pellet was skinned in relaxing solution plus 0.5% (w/w) TRITON® X-100 at 4° C. with rotation for 10 min. After centrifugation at 14,000×g at 4° C. for 20 min, the pellet was suspended in relaxing solution without TRITON® X-100 and incubated at 37° C. with rotation. Samples were collected at a series of time points for SDS-PAGE and Western blotting to examine the modifications of cTnT and other myofibrillar proteins.
Calpain inhibition. To test whether endogenous calpain in the cardiac muscle contributes to TnT NH2-terminal modification, several different calpain inhibitors were applied to the TRITON® X-100 extraction procedure. […] TRITON® X-100 treatment of mouse ventricular muscle strips was carried out as above in the presence or absence of 100 μM hydrogen peroxide and the effect on cTnT modification was examined by Western blotting.
The effects of two cell membrane-permissible nonpeptide calpain inhibitors, PD 150606 and PD 151746 (Calbiochem), were also tested. […] PD 150606 and […] were separately added to the relaxing solution before TRITON® X-100 treatment and incubated with the minced ventricular muscle at 4° C. for 10 minutes to allow the inhibitor to penetrate cell membrane and bind to calpain. After TRITON® X-100 extraction, samples were collected for SDS-PAGE and Western blotting to examine the effect on cTnT modification.

bovine cardiac TnI = target: T2, bovine cardiac TnI (Bos taurus, UniProt P08057); assay: ELISA solid phase protein binding of immobilized cTnT to TnI; settings: for EC50: immobilized mouse cTnT, mean ± SD, read-out: concentration of TnI required to reach 50% of maximum binding; for change in binding to TnI on decrease of pH: pH from 7.0 to 6.2
T2 construct: Bovine cardiac TnI was purified from ventricular muscle as described previously (19); from tissue; host or cells: bovine ventricular muscle
Method: (§2) Protein binding assays. Enzyme-linked immunosorbant assay (ELISA) solid phase protein binding experiments (21) were performed to investigate the interactions of the NH2-terminal truncated cTnT with TnI and tropomyosin. Purified intact and NH2-terminal truncated mouse cTnT or BSA control were dissolved at 5 μg/mL in Buffer A (0.1 M KCl, 3 mM MgCl2, 20 mM PIPES, pH 7.5) and coated onto 96-well microtiter plates by incubation at 4° C. overnight. After washes with Buffer T (Buffer A containing 0.05% polyoxyethylene 20 (TWEEN®20)) at pH 7.5 to remove the unbound protein, the plates were blocked with Buffer T at pH 7.0 or 6.2 containing 1% BSA. The immobilized cTnT was incubated with serial dilutions of bovine cardiac TnI or rabbit α-tropomyosin in Buffer T (at the blocking pH) containing 0.1% BSA at room temperature for 2 hours. After one wash with Buffer T of the blocking pH and two washes with Buffer T at pH 7.0, the bound TnI or tropomyosin was quantified via incubation at pH 7.0 and room temperature for 1 hour with the anti-TnI mAb TnI-1 (46) or an anti-tropomyosin mAb CH1 (47), respectively. The plates were then processed by a standard ELISA procedure, including pH 7.0 Buffer T washes, horse radish peroxidase-conjugated anti-mouse immunoglobulin second antibody (Sigma) incubation, and H2O2/2,2′-azinobis-(3-ethylbenzthiazolinesulfonic acid) substrate reaction (21). A405 nm of each assay well was recorded at a series of time points by an automated microtiter plate reader (BioRad Benchmark). The A405 nm values in the linear course of the color development were used to plot the protein binding affinity curves. All experiments were done in triplicate.

rabbit α-tropomyosin = target: T3, rabbit α-tropomyosin (Oryctolagus cuniculus, UniProt P58772); assay: ELISA solid phase protein binding of immobilized cTnT to tropomyosin; settings: for EC50: immobilized mouse cTnT, mean ± SD, read-out: concentration of tropomyosin for 50% maximum binding; for change in binding to tropomyosin on decrease of pH: pH from 7.0 to 6.2
T3 construct: Rabbit α-tropomyosin was purified from ventricular muscle as described previously (44); from tissue; host or cells: rabbit ventricular muscle
Method: as §2

[2] = test system: cTnT in bovine cardiac myofibrils; assay: μ-Calpain treatment of cardiac myofibrils (mAb CT3 Western blot densitometry); format: biochemical; settings: 20 U/ml μ-calpain
Method: as §1
Mu-Calpain treatment of cTnT. […] The samples were analyzed by SDS-PAGE and Western blotting as described above. […]

Row | Molecule | cTnT-ND production reduced to ([1]; TRITON X-100 extracted exon 7-deleted transgenic mouse ventricular muscle strips) [%] | decrease in cTnT-ND72-291 ([1]; TRITON X-100 treated mouse ventricular muscle strips) | maximum binding to TnI, compared with intact cTnT (bovine cardiac TnI; FIG. 12A insert) | EC50 (bovine cardiac TnI) [nM] | change in binding to TnI on decrease of pH (bovine cardiac TnI) | level of maximum binding to tropomyosin, compared with intact cTnT (rabbit α-tropomyosin; FIG. 12B insert) | EC50 (rabbit α-tropomyosin) [nM] | change in binding to tropomyosin on decrease of pH (rabbit α-tropomyosin) | NH2-terminal truncated cTnT (cTnT ND) as share of total cTnT (truncated plus intact) ([2]; 0% at 0 U/ml) [%] | intact cTnT remaining ([2]; 100% at 0 U/ml) [%]
1 | OO [hydrogen peroxide] | 65 | approximately 35% |  |  |  |  |  |  |  | 
2 | cTnT ND: NH2-terminal truncated mouse cardiac troponin T lacking amino acids 1-71, expressed in E. coli |  |  | No significant difference | 8.73 ± 1.15 | did not result in significant change | not significantly changed | 9.73 ± 0.185 | did not result in significant change |  | 
3 | intact cTnT: intact mouse cardiac troponin T (TnT4) expressed in E. coli |  |  |  | 15.3 ± 1.36 | did not result in significant change |  | 13.5 ± 1.38 | did not result in significant change |  | 
4 | μ-calpain: calcium activated cysteine protease (Calbiochem) used to treat cTnT, troponin complex and myofibrils (protein, UniProt P07384 2-714, looked up) Calpain-1 catalytic subunit: SEEIITPVYCTGVSAQVQKQRARELGLGRHENAIKYLGQDYEQLRVRCLQSGTLFRDEAFPPVPQSLGYKDLGPNSSKTYGIKWKRPTELLSNPQFIVDGATRTDICQGALGDCWLLAAIASLTLNDTLLHRVVPHGQSFQNGYAGIFHFQLWQFGEWVDVVVDDLLPIKDGKLVFVHSAEGNEFWSALLEKAYAKVNGSYEALSGGSTSEGFEDFTGGVTEWYELRKAPSDLYQIILKALERGSLLGCSIDISSVLDMEAITFKKLVKGHAYSVTGAKQVNYRGQVVSLIRMRNPWGEVEWTGAWSDSSSEWNNVDPYERDQLRVKMEDGEFWMSFRDFMREFTRLEICNLTPDALKSRTIRKWNTTLYEGTWRRGSTAGGCRNYPATFWVNPQFKIRLDETDDPDDYGDRESGCSFVLALMQKHRRRERRFGRDMETIGFAVYEVPPELVGQPAVHLKRDFFLANASRARSEQFINLREVSTRFRLPPGEYVVVPSTFEPNKEGDFVLRFFSEKSAGTVELDDQIQANLPDEQVLSEEEIDENFKALFRQLAGEDMEISVKELRTILNRIISKHKDLRTKGFSLESCRSMVNLMDRDGNGKLGLVEFNILWNRIRNYLSIFRKFDLDKSGSMSAYEMRMAIESAGFKLNKKLYELIITRYSEPDLAVDFDNFVCCLVRLETMFRFFKTLDTDLDGVVTFDLFKWLQLTMFA |  |  |  |  |  |  |  |  | 98 | 1.5
